Test [1] concerns the target recombinant PolB1 of Sulfolobus solfataricus (Sulfolobus solfataricus) (UniProt P26811). Nature of the test: native MS; PolB1-HE complex at 4.2 μM in 50 mM ammonium acetate, nano ESI, Synapt G2S.
Test [2] has the same target.

Sequence of UniProt P26811 (P26811 36-882): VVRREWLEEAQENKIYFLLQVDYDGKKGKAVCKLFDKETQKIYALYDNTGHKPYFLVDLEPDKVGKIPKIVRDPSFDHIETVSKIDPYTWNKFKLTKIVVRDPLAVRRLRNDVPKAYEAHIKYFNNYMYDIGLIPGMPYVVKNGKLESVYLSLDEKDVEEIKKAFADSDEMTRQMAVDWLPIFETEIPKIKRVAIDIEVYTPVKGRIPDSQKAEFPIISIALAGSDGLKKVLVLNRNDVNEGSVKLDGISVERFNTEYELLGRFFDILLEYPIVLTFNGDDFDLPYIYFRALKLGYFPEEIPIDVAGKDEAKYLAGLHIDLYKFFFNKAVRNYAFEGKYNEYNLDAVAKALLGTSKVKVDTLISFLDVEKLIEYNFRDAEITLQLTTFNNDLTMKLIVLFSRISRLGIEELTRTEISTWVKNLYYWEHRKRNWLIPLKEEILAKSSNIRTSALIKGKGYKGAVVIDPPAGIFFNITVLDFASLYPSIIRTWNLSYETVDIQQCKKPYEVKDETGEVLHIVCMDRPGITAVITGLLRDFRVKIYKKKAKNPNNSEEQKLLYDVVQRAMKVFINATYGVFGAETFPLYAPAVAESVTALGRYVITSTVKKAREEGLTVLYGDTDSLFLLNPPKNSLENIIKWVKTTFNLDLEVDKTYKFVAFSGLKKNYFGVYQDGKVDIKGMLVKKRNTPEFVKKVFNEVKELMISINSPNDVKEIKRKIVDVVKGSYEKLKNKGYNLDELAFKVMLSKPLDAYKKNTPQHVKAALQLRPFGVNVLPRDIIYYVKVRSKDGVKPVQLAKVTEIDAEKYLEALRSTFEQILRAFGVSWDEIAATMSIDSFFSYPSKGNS

Regarding “recombinant PBP2 of Sulfolobus solfataricus (SSO6202) (natural protein)”, the stoichiometry N (commonly the number of molecules, sites or subunits per partner or assembly) in test [1] amounted to 1. Take “PBP1ΔC, PBP1 C-terminal tail deletion mutant (from UniProt Q980X5 1-78) (domain or fragment)”: the kinetics of excision of the 3′ nucleotide (dGMP) in test [2] turned out to be 6 fold. In the case of “recombinant PBP1 of Sulfolobus solfataricus (SSO0150) (from UniProt Q980X5 1-118) (natural protein)”, the stoichiometry N in test [1] was found to be 1.

Values taken from publication PMC5418573.
